Data published in US20150111829A1 (PHASEBIO PHARMACEUTICALS, published 2015).

T1: human Vasoactive Intestinal Peptide Receptor 1 (VPAC1) (human) (UniProt P32241)
T1 sequence (looked up): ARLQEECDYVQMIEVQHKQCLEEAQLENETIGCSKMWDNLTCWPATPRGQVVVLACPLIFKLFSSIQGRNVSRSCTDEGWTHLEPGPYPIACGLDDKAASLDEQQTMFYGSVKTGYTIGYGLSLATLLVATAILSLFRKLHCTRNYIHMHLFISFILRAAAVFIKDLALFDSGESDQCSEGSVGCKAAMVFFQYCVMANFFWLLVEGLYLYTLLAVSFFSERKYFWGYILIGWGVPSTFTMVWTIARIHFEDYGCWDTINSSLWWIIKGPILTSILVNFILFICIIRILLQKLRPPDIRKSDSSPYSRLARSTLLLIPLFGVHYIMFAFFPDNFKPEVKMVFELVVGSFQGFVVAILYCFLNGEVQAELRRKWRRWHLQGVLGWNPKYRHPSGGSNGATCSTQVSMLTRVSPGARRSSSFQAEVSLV

T2: human Vasoactive Intestinal Peptide Receptor 2 (VPAC2) (human) (UniProt P41587)
T2 sequence (looked up): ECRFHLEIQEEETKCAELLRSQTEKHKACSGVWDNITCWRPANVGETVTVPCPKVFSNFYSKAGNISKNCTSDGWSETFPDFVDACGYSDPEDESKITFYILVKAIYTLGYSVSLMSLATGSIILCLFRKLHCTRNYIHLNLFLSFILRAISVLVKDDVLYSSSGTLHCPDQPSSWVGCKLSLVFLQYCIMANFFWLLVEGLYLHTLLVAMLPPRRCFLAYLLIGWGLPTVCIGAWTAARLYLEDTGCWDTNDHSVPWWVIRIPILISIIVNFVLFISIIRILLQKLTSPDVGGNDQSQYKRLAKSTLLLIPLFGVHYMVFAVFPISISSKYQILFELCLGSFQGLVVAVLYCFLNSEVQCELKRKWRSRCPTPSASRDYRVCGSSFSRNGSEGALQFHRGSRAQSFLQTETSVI

T3: human Vasoactive Intestinal Peptide Receptor 1 (VPAC1) (human, UniProt P32241 31-457)
T3 sequence (looked up): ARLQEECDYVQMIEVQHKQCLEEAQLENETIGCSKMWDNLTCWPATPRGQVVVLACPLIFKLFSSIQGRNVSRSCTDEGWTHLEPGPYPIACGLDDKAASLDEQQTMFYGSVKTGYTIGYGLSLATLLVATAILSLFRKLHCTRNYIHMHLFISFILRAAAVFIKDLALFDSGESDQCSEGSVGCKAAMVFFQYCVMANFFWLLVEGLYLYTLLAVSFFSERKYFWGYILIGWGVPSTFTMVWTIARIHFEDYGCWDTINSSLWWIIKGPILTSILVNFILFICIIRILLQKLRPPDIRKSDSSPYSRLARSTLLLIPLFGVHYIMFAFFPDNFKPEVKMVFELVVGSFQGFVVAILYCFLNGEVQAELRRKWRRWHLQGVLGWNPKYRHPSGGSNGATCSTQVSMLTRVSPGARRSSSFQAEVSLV


Legend:
Test in all cases: cell-based or functional assay
[1] = molecular target: T1, human Vasoactive Intestinal Peptide Receptor 1 (VPAC1) (human)
[2] = molecular target: T2, human Vasoactive Intestinal Peptide Receptor 2 (VPAC2) (human)
[3] = molecular target: T3, human Vasoactive Intestinal Peptide …

| cAMP assay in CHO cells expressing VPAC1, fold less active than native VIP (fold less active than native VIP) [1] | cAMP assay in CHO cells expressing VPAC2, fold less active than native VIP (fold less active than native VIP) [2] | cAMP assay in CHO cells expressing VPAC1, fold less active than native VIP [3] | Binder |
| --- | --- | --- | --- |
| 1.4 | 1.5 |  | HSDAVFTDNYTRLRKQMAVKKYLNSILN (peptide, part only; not given: ELP1-120 polymer, part only) [VIP-ELP1-120 fusion peptide PB1120] |
|  |  | ~11 fold less active than native VIP | M-VIP-ELP1-120 fusion protein PB1046 (other) MHSDAVFTDNYTRLRKQMAVKKYLNSILNVPGVGVPGVGVPGGGVPGAGVPGVGVPGVGVPGVGVPGGGVPGAGVPGGGVPGVGVPGVGVPGGGVPGAGVPGVGVPGVGVPGVGVPGGGVPGAGVPGGGVPGVGVPGVGVPGGGVPGAGVPGVGVPGVGVPGVGVPGGGVPGAGVPGGGVPGVGVPGVGVPGGGVPGAGVPGVGVPGVGVPGVGVPGGGVPGAGVPGGGVPGVGVPGVGVPGGGVPGAGVPGVGVPGVGVPGVGVPGGGVPGAGVPGGGVPGVGVPGVGVPGGGVPGAGVPGVGVPGVGVPGVGVPGGGVPGAGVPGGGVPGVGVPGVGVPGGGVPGAGVPGVGVPGVGVPGVGVPGGGVPGAGVPGGGVPGVGVPGVGVPGGGVPGAGVPGVGVPGVGVPGVGVPGGGVPGAGVPGGGVPGVGVPGVGVPGGGVPGAGVPGVGVPGVGVPGVGVPGGGVPGAGVPGGGVPGVGVPGVGVPGGGVPGAGVPGVGVPGVGVPGVGVPGGGVPGAGVPGGGVPGVGVPGVGVPGGGVPGAGVPGVGVPGVGVPGVGVPGGGVPGAGVPGGGVPGVGVPGVGVPGGGVPGAGVPGVGVPGVGVPGVGVPGGGVPGAGVPGGGVPGWP |
